Columns and labels:
[1] = Fluorescence polarization equilibrium competition binding assay, unlabeled progesterone; details: steroid progesterone; PBS pH 7.4, 25° C.; read-out: Inhibition Constant (Ki)
Description: (§1) Proteins were expressed in E. coli Rosetta 2 (DE3) cells with a C-terminal TEV protease cleavable His6 tag for biochemical assays. For crystallographic analysis of DIG10 variants, a 12-amino acid structurally disordered C-terminus deriving from the scaffold protein 1z1s was replaced directly with a His6 tag. Binding affinities were determined by equilibrium fluorescence polarization^30 on a SpectraMax M5e microplate reader by monitoring the anisotropy of DIG-conjugated Alexa488 as a function of protein concentration. Equilibrium fluorescence polarization competition assays were performed by examining the effect of increasing concentrations of unlabeled DIG, digitoxigenin, progesterone, and β-estradiol on the anisotropy of designed protein-DIG-conjugated Alexa488 complex.
(§2) Fluorescence polarization binding assays. Fluorescence polarization-based affinity measurements of designs and their evolved variants were performed as described^46 using Alexa488-conjugated DIG (DIG-PEG3-Alexa488). Fluorescence anisotropy (r) was measured in 96-well plate format on a SpectraMax M5e microplate reader (Molecular Devices) with λex=485 nM and λem=538 nM using a 515 nm emission cutoff filter. Fluorescence polarization equilibrium competition binding assays were used to determine the binding affinities of DIG10.3 and its variants for unlabeled digoxigenin, digitoxigenin, progesterone, β-estradiol, and digoxin. […]
(§3) Fluorescence polarization equilibrium competition binding assays. Fluorescence polarization equilibrium competition binding assays were used to determine the binding affinities of DIG10.3 and its variants for unlabeled digoxigenin, digitoxigenin, progesterone, β-estradiol, and digoxin. […] For each ligand concentration, a negative control sample containing only DIG-PEG3-Alexa488 and the appropriate dilution of a corresponding methanol-only control solution in PBS was measured.
(§4) Fluorescence anisotropy (r) was measured as noted above. […]

[2] = Fluorescence polarization equilibrium competition binding assay, unlabeled β-estradiol; details: steroid β-estradiol; PBS pH 7.4, 25° C.; read-out: Inhibition Constant (Ki)
Description: as §1, §2, §3, §4

[3] = Fluorescence polarization equilibrium competition binding assay, unlabeled digitoxigenin; details: steroid digitoxigenin; PBS pH 7.4, 25° C.; read-out: Inhibition Constant (Ki)
Description: as §1, §2, §3, §4

[4] = Fluorescence polarization equilibrium competition binding assay, unlabeled digoxin
Description: (§5) Fluorescence polarization binding assays. Fluorescence polarization-based affinity measurements of designs and their evolved variants were performed as described^46 using Alexa488-conjugated DIG (DIG-PEG3-Alexa488). Fluorescence anisotropy (r) was measured in 96-well plate format on a SpectraMax M5e microplate reader (Molecular Devices) with λex=485 nM and λem=538 nM using a 515 nm emission cutoff filter. Fluorescence polarization equilibrium competition binding assays were used to determine the binding affinities of DIG10.3 and its variants for unlabeled digoxigenin, digitoxigenin, progesterone, β-estradiol, and digoxin. The inhibition constant for each protein-ligand interaction, Ki, was calculated from the measured total unlabeled ligand producing 50% binding signal inhibition (I50) and the Kd of the protein-label interaction according to a model accounting for receptor-depletion conditions^46.
Fluorescence polarization equilibrium competition binding assays. Fluorescence polarization equilibrium competition binding assays were used to determine the binding affinities of DIG10.3 and its variants for unlabeled digoxigenin, digitoxigenin, progesterone, β-estradiol, and digoxin. […] Unlabeled stock solutions of digoxigenin, digitoxigenin, progesterone, and β-estradiol were prepared in methanol. Unlabeled stock solutions of digoxin were prepared in DMSO. […] For each ligand concentration, a negative control sample containing only DIG-PEG3-Alexa488 and the appropriate dilution of a corresponding methanol-only control solution in PBS was measured.
Fluorescence anisotropy (r) was measured as noted above. […] The concentration of total unlabeled ligand producing 50% binding signal inhibition (I50) was determined by fitting a plot of the anisotropy averaged over a period of 30 min to 3 hr after reaction initiation versus unlabeled ligand concentration as described previously^47. […] In these cases, data were fit by fixing the anisotropy at infinite steroid concentration to a value measured for other steroids for which this value could be determined experimentally. […]

[5] = Fluorescence polarization equilibrium competition binding assay, unlabeled digoxigenin; details: for Ki: steroid Digoxigenin (DIG), PBS pH 7.4, 25° C., read-out: Inhibition Constant (Ki)
Description: as §1, §5
Fluorescence polarization equilibrium competition binding assays. Fluorescence polarization equilibrium competition binding assays were used to determine the binding affinities of DIG10.3 and its variants for unlabeled digoxigenin, digitoxigenin, progesterone, β-estradiol, and digoxin. […] Unlabeled stock solutions of digoxigenin, digitoxigenin, progesterone, and β-estradiol were prepared in methanol. Unlabeled stock solutions of digoxin were prepared in DMSO. Ligand stock solutions were 10 mM for DIG, digitoxigenin, and digoxin, and 1 mM for progesterone and β-estradiol. For each ligand concentration, a negative control sample containing only DIG-PEG3-Alexa488 and the appropriate dilution of a corresponding methanol-only control solution in PBS was measured.
Fluorescence anisotropy (r) was measured as noted above. In all experiments, PBS (pH 7.4) was used as the buffer system and the temperature was 25° C. The concentration of total unlabeled ligand producing 50% binding signal inhibition (I50) was determined by fitting a plot of the anisotropy averaged over a period of 30 min to 3 hr after reaction initiation versus unlabeled ligand concentration as described previously^47. For some experiments, limiting steroid concentrations made it impossible to collect data in the regime of complete inhibition. In these cases, data were fit by fixing the anisotropy at infinite steroid concentration to a value measured for other steroids for which this value could be determined experimentally. […]
The inhibition constant for each protein-ligand interaction, Ki, was calculated from the measured IC50 and the Kd of the protein-label interaction according to a model accounting for receptor-depletion conditions^47. […]

Row | Molecule | Ki [1] [nM] | Ki [2] [nM] | Ki [3] [nM] | affinity for digoxin (in words) [4] | affinity for digoxin compared with DIG ([4]; competition FP) | Ki ([4]; steroid digoxin, PBS pH 7.4, 25° C., read-out: Inhibition Constant (Ki)) [nM] | DIG binding affinity relative to widely used anti-DIG antibodies [5] | affinity for DIG (in words) [5] | Ki [5] [nM]
1 | DIG10.3: DIG10.2 variant with C23S, H90L, V92A, A99Y, S103A, L105W; SEQ ID NO: 15 (protein, (130)..(141) amino acids are optionally absent) MNAKEIVVHALRLLENGDARGWSDLFHPEGVLEYPYPPPGYKTRFEGRETIWAHMRLFPEYMTIRFTDVQFYETADPDLAIGEFHGDGVLTASGGKLAYDYIAVWRTRDGQILLYRLFFNPLRVLEPLGGVEAAAKIVQGA | 243 ± 91 | 2100 ± 800 | 19 ± 7 | picomolar affinity | slightly higher than that for DIG | 0.223 ± 0.105 | within a factor of two | picomolar affinity | 0.653 ± 0.262
2 | DIG10.3 Y101F: DIG10.3 point mutant, SEQ ID NO: 19 (protein, (130)..(141) amino acids are optionally absent) MNAKEIVVHALRLLENGDARGWSDLFHPEGVLEYPYPPPGYKTRFEGRETIWAHMRLFPEYMTIRFTDVQFYETADPDLAIGEFHGDGVLTASGGKLAYDFIAVWRTRDGQILLYRLFFNPLRVLEPLGGVEAAAKIVQGA | 30 ± 9 | 1700 ± 400 | < 3.8 |  |  |  |  |  | 39 ± 8
3 | DIG10.3 Y34F/Y99F/Y101F: DIG10.3 triple mutant, SEQ ID NO: 22 (protein, (130)..(141) amino acids are optionally absent) MNAKEIVVHALRLLENGDARGWSDLFHPEGVLEFPYPPPGYKTRFEGRETIWAHMRLFPEYMTIRFTDVQFYETADPDLAIGEFHGDGVLTASGGKLAFDFIAVWRTRDGQILLYRLFFNPLRVLEPLGGVEAAAKIVQGA | < 17 | 1600 ± 600 | < 16 |  |  |  |  |  | 580 ± 229
